Our source for the %AUC values is US20250277003A1.

Test [1] addresses SARS-CoV-2 RBD glycan-masked mutant GM9 (SARS-CoV-2) (UniProt P0DTC2). Nature of the test: ELISA, AUC relative to RBD WT. On the technique in general: An ELISA detects its analyte on a solid surface through an enzyme-linked reagent.
The target of test [2] is SARS-CoV-2 RBD glycan-masked mutant GM14 (SARS-CoV-2) (UniProt P0DTC2). Nature of the test: ELISA, AUC relative to RBD WT.

On to mAb C002 (antibody), for which the %AUC in test [1] was 51.3%; in test [2], 10.2%.

Turning to mAb CB6 (antibody), the results for the %AUC in test [1] and in test [2] were 7.2% and 7.8%, respectively.

For mAb CR3022 (antibody), the %AUC was 120% in test [1] and 72.9% in test [2].

With mAb EY6A (antibody), the %AUC was 115% in test [1] and 94.5% in test [2].

As to mAb S309 (antibody), the %AUC was 114% in test [1] and 83.4% in test [2].
